{
  "source": "paper PMC7065885",
  "key": {"[1]": {"molecular_target": "murine CD11b I-domain (mouse)", "sequence (P05555 17-1153)": "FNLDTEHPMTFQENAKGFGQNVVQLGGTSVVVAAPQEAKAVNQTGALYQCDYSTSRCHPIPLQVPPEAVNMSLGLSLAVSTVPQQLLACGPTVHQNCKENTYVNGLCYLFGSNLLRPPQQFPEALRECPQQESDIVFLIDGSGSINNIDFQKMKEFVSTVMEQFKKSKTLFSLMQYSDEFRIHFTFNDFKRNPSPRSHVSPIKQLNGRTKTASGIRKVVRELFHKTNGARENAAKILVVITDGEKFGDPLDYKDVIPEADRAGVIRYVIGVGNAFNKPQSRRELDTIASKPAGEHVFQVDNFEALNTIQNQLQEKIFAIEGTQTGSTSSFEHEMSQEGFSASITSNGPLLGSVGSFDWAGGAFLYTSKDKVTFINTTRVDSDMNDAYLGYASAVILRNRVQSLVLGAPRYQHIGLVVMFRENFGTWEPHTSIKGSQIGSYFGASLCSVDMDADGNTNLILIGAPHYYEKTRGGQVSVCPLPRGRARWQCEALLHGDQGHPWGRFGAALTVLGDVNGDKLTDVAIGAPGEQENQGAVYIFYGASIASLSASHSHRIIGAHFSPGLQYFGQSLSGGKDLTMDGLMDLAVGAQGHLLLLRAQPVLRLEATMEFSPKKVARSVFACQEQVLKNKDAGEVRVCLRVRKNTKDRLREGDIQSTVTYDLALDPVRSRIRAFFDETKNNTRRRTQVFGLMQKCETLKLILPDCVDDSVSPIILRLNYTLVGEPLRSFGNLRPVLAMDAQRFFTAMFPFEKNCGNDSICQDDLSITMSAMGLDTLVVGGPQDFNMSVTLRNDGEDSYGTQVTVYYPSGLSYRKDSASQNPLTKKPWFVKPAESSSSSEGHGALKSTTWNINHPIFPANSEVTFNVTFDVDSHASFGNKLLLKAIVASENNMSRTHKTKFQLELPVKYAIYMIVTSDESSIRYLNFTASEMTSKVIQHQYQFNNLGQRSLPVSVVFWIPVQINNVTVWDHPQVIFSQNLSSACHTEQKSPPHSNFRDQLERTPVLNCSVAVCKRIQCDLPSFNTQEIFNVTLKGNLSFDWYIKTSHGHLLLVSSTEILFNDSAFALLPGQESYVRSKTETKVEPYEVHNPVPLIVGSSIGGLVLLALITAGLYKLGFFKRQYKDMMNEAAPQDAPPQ", "experiment": "SPR"}, "[2]": {"molecular_target": "human CD11b I-domain (human)", "experiment": "SPR"}},
  "data": [
    {"substance": "LukAB (complex)", "values": [
      {"measurement": "Kd", "setting": "[1]", "result": 247, "unit": "µM"},
      {"measurement": "Kd", "setting": "[2]", "result": 0.0393, "unit": "µM"}
    ]}
  ]
}
